Laboratory results published in US20230340151A1 (Pfizer, published 2023).
Numbering of substitutions follows the chain as printed.

Assays:
[1] = biological target: T1, Purified human GUCY2c ECD (recombinant, construct not stated) (human, UniProt P25092 24-430); assay: ELISA; column 'Direct huGUCY2C binding (nM)'
T1 construct: also called recombinant human GUCY2c; recombinant GUCY2c protein

[2] = biological target: T2, Human GUCY2C full length (SEQ ID NO: 224), recombinant protein (human, UniProt P25092 24-430, limits assumed); assay: SPR, IgG captured by anti-human Fc
T2 construct: also called huGUCY2C; biotinylated human GUCY2c

[3] = biological target: T1, Purified human GUCY2c ECD (recombinant, …); assay: direct ELISA, coated GUCY2c ECD
[4] = biological target: T3, Cynomolgus GUCY2C-ECD Cleaved (cynomolgus, UniProt P25092 24-430 (human entry)); assay: SPR, GUCY2c directly immobilized, 37 C
T3 construct: also called CyGUCY2C
T3 chain: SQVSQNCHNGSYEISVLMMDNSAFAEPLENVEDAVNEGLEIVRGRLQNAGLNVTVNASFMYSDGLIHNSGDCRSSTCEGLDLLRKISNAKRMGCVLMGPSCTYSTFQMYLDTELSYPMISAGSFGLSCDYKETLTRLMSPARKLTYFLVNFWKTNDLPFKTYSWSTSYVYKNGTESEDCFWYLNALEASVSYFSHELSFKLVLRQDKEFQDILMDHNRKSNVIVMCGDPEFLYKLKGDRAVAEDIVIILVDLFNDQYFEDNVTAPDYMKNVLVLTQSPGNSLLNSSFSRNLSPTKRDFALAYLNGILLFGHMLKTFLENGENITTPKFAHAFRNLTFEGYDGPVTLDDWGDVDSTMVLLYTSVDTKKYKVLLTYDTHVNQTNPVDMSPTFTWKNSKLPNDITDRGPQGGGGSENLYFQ

[5] = biological target: T4, Murine GUCY2C-ECD cleaved (mouse, UniProt Q3UWA6 20-433); assay: SPR, anti-human IgG capture, 25 C
T4 sequence: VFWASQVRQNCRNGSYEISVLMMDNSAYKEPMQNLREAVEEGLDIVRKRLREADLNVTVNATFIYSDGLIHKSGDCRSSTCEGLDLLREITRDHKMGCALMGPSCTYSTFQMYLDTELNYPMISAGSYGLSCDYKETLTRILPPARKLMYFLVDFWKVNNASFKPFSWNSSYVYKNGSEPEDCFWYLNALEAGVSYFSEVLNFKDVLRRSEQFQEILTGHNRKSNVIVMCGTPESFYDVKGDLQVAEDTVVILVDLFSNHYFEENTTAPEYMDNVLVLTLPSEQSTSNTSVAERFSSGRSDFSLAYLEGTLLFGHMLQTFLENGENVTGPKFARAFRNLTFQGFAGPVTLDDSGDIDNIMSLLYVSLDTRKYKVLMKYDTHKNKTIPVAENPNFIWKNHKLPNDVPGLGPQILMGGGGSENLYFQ

Human CD3 epsilon-delta [6] = biological target: T5, Human CD3 epsilon-delta (human); assay: SPR, anti-human IgG capture, 25 C
T5 construct: Single-chain epsilon-linker-delta with His6; also called huCD3
T5 chain: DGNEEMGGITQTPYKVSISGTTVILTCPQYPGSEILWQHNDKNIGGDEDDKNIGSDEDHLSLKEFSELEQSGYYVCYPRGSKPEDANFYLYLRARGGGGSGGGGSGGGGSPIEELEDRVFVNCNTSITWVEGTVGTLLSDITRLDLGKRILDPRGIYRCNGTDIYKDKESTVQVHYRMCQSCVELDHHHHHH

Human CD3 epsilon-delta [7] = biological target: T5, Human CD3 epsilon-delta; assay: SPR, CD3 captured by anti-His, printed 25 C (Table 33C)
[8] = biological target: T2, Human GUCY2C full length (SEQ ID NO: …); assay: SPR, GUCY2c directly immobilized, 37 C
Human CD3 epsilon-delta [9] = biological target: T5, Human CD3 epsilon-delta; assay: direct ELISA, coated CD3 epsilon-delta
[10] = biological target: T3, Cynomolgus GUCY2C-ECD Cleaved; assay: SPR, anti-human IgG capture, 25 C
[11] = biological target: T2, Human GUCY2C full length (SEQ ID NO: …); assay: SPR, anti-human IgG capture, 25 C
Human GUCY2C ECD-muIgG2a = biological target: T6, Human GUCY2C ECD-muIgG2a (human); assay: sandwich ELISA: CD3 epsilon-delta coated, GUCY2c ECD-mIgG2a Fc in solution
T6 construct: also called human GUCY2c ECD-mouse IgG2a Fc fusion protein; huGUCY2c-mIgG2a

[12] = biological target: T7, Cynomolgus CD3 epsilon-delta (cynomolgus); assay: SPR, CD3 captured by anti-His, 25 C
T7 chain: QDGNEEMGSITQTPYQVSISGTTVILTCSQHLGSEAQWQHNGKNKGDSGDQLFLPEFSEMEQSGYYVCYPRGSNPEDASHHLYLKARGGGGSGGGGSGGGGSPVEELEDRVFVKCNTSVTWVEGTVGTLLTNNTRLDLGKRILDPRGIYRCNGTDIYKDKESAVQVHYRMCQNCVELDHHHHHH

[13] = biological target: T4, Murine GUCY2C-ECD cleaved; assay: SPR, GUCY2c directly immobilized, 25 C
Human CD3 epsilon-delta [14] = biological target: T5, Human CD3 epsilon-delta; assay: SPR, CD3 captured by anti-His, 25 C
[15] = biological target: Human GUCY2c on tumor cells (T84, HT55) (human, UniProt P25092 24-1073); assay: cell-based or functional assay
[16] = biological target: T7, Cynomolgus CD3 epsilon-delta; assay: SPR, CD3 captured by anti-His, printed 25 C (Table 33F)
[17] = biological target: T2, Human GUCY2C full length (SEQ ID NO: …); assay: SPR, GUCY2c directly immobilized, 25 C
[18] = biological target: T7, Cynomolgus CD3 epsilon-delta; assay: SPR, printed anti-His capture, 25 C (Table 33D)
[19] = biological target: T4, Murine GUCY2C-ECD cleaved; assay: SPR, GUCY2c directly immobilized, 37 C
[20] = biological target: T3, Cynomolgus GUCY2C-ECD Cleaved; assay: SPR, GUCY2c directly immobilized, 25 C

T2 sequence (P25092 24-430 F281L limits assumed): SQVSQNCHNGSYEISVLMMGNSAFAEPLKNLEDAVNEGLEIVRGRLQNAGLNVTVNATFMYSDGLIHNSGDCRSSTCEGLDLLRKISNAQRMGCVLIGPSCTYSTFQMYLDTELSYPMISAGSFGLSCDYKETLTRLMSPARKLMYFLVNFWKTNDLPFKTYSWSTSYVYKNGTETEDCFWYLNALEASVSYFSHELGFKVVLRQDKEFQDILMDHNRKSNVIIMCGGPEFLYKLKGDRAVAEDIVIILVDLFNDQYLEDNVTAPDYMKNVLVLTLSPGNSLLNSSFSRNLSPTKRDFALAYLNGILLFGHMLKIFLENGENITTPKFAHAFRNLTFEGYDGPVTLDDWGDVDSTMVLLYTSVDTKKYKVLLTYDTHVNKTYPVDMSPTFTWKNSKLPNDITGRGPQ
T1 sequence (P25092 24-430 limits assumed): as the sequence (P25092 24-430 F281L limits assumed) above, with L258F counted along it
T6 sequence (chain, as listed by the source limits assumed): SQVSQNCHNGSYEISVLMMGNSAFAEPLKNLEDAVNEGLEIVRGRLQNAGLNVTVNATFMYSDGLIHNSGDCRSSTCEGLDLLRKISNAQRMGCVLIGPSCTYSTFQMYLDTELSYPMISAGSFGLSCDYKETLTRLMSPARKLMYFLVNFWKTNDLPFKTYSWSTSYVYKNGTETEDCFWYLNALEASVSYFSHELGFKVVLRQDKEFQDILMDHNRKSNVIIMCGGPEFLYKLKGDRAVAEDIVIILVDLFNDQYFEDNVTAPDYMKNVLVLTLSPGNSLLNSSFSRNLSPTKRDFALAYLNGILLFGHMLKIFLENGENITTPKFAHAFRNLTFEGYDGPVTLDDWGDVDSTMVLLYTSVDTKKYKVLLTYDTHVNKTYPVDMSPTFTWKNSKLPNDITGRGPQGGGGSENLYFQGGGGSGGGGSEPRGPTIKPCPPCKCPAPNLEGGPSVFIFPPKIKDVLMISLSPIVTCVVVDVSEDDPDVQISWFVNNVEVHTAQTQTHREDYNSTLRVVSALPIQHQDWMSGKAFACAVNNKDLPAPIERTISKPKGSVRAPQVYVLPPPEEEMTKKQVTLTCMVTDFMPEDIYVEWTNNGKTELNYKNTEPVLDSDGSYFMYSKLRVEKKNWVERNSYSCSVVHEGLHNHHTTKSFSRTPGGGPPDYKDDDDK
Sequence of Human GUCY2c on tumor cells (T84, HT55) (P25092 24-1073 limits assumed): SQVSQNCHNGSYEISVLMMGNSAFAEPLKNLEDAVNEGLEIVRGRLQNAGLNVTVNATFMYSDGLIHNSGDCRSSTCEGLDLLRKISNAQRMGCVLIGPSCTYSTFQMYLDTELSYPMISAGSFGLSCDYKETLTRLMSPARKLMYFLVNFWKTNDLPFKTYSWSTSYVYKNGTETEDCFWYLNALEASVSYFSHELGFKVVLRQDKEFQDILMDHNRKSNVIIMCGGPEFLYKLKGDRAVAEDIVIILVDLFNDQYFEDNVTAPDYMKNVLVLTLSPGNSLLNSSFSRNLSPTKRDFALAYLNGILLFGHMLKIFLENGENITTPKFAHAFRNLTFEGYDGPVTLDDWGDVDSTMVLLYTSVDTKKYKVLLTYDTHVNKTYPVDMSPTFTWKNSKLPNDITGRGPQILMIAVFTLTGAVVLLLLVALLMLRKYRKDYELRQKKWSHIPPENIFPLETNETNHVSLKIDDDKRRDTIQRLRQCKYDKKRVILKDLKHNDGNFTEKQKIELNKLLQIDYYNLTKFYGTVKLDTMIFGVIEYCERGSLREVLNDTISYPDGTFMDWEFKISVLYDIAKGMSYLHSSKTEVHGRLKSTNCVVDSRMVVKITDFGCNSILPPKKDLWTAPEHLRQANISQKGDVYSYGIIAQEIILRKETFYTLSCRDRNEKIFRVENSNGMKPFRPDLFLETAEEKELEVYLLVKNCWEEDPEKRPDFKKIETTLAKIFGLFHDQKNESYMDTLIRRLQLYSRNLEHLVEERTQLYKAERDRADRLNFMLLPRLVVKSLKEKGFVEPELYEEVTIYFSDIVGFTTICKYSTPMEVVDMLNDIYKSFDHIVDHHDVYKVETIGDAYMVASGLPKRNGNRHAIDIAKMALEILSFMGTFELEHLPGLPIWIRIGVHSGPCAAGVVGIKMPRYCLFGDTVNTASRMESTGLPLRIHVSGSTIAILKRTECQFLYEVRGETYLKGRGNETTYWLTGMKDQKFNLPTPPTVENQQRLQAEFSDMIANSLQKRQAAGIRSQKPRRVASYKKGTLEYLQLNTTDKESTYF

B1: GUCY2C-0212 (antibody, human IgG1, V domains shown)
VH: EVQLVESGGGLVQPGGSLRLSCAASGYTFTSYWMHWVRQAPGKGLEWIGEIKPSNGLTNYIEKFKNRFTISRDNAKNSLYLQMNSLRAEDTAVYYCARTITTTEGYWFFDVWGQGTLVTVSS
VL: DIQLTQSPSSLSASVGDRVTITCRASESVDYYGTSLMQWYQQKPGKAPKLLIYAASNVESGVPSRFSGSGSGTDFTLTISSLQPEDFATYYCQQTRKVYTFGQGTKLEIK
EC50 [1]: 0.769 nM
Kd [2]: 26 nM

B2: GUCY2C-0486 (antibody, human IgG1, kappa, V domains shown)
VH: B1 VH with Y60V, I61H, R72V, N74K, L79A, A97T
VL: DIQLTQSPSSLSASVGDRVTITCRASESVDYYGSSLLQWYQQKPGKAPKLLIYAASKLASGVPSRFSGSGSGTDFTLTISSLQPEDFATYYCQQTRKAYTFGQGTKLEIKR
Kd [2]: 5.47 nM

B3: GUCY2C-0210 (antibody, human IgG1, V domains shown)
VH: B1 VH with G49A
VL: B1 VL
EC50 [1]: 8.96 nM
Kd [2]: 85.7 nM

B4: GUCY2C-0241 (antibody, human IgG1, kappa, V domains shown)
VH: B1 VH with R72V, N74K, L79A, A97T
VL: B2 VL with S34T, L37M, K57N, L58V, A59E, A98V
notes: humanized IgG1; used as scFv on phage in the binary substitution library
EC50 [1]: 0.161 nM
Kd [2]: 9.81 nM

B5: GUCY2C-0098 (bispecific antibody)
chain 1: DIVLTQSPASLAVSLGQRATISCRASESVDYYGTSLMQWYQQKPGQPPKLLIYAASNVESGVPARFSGSGSGTDFSLNIHPVEEDDIAMYFCQQTRKVYTFGGGTKLEIKGGGSGGGGEVQLVESGGGLVQPGGSLRLSCAASGFTFSDYYMTWVRQAPGKGLEWVAFIRNRARGYTSDHNPSVKGRFTISRDNAKNSLYLQMNSLRAEDTAVYYCARDRPSYYVLDYWGQGTTVTVSSGCPPCPAPEAAGAPSVFLFPPKPKDTLMISRTPEVTCVVVDVSHEDPEVKFNWYVDGVEVHNAKTKPREEQYNSTYRVVSVLTVLHQDWLNGKEYKCKVSNKALPAPIEKTISKAKGQPREPQVCTLPPSREEMTKNQVSLWCLVKGFYPSDIAVEWESNGQPENNYKTTPPVLDSDGSFFLYSKLTVDKSRWQQGNVFSCSVMHEALHNHYTQKSLSLSPG
chain 2: DIVMTQSPDSLAVSLGERATINCKSSQSLFNVRSRKNYLAWYQQKPGQPPKLLISWASTRESGVPDRFSGSGSGTDFTLTISSLQAEDVAVYYCKQSYDLFTFGSGTKLEIKGGGSGGGGQVQLQQPGAELVKPGASVKLSCKASGYTFTSYWMHWVKQRPGQGLEWIGEIKPSNGLTNYIEKFKNKATLTVDKSATTAYMQLSSLTAEDSAVYYCTRTITTTEGYWFFDVWGAGTTVTVSSGCPPCPAPEAAGAPSVFLFPPKPKDTLMISRTPEVTCVVVDVSHEDPEVKFNWYVDGVEVHNAKTKPREEQYNSTYRVVSVLTVLHQDWLNGKEYKCKVSNKALPAPIEKTISKAKGQPREPQVYTLPPCREEMTKNQVSLSCAVKGFYPSDIAVEWESNGQPENNYKTTPPVLDSDGSFFLVSKLTVDKSRWQQGNVFSCSVMHEALHNHYTQKSLSLSPG
notes: chimeric CD3-GUCY2c diabody-Fc, CD3-0004
EC50 [3]: 60.2 nM
Kd [4]: 8.52 nM
koff [4]: 0.00264 s⁻¹
kon [4]: 310000 M⁻¹ s⁻¹
Kd [5]: 107 nM
koff [5]: 0.00402 s⁻¹
kon [5]: 37500 M⁻¹ s⁻¹
Kd (Human CD3 epsilon-delta [6]): 3.26 nM
koff (Human CD3 epsilon-delta [6]): 0.000967 s⁻¹
kon (Human CD3 epsilon-delta [6]): 297000 M⁻¹ s⁻¹
Kd (Human CD3 epsilon-delta [7]): 19.9 nM
koff (Human CD3 epsilon-delta [7]): 0.0505 s⁻¹
kon (Human CD3 epsilon-delta [7]): 2.51e+06 M⁻¹ s⁻¹
Kd [8]: 15 nM
koff [8]: 0.00377 s⁻¹
kon [8]: 251000 M⁻¹ s⁻¹
EC50 (Human CD3 epsilon-delta [9]): 7.24 nM
Kd [10]: 3.93 nM
koff [10]: 0.000524 s⁻¹
kon [10]: 134000 M⁻¹ s⁻¹
Kd [11]: 4.96 nM
koff [11]: 0.000675 s⁻¹
kon [11]: 136000 M⁻¹ s⁻¹
EC50 (Human GUCY2C ECD-muIgG2a): 186 nM
Kd [12]: 4.94 nM
koff [12]: 0.00478 s⁻¹
kon [12]: 969000 M⁻¹ s⁻¹
Kd [13]: 20 nM
koff [13]: 0.00268 s⁻¹
kon [13]: 134000 M⁻¹ s⁻¹
Kd (Human CD3 epsilon-delta [14]): 4.75 nM
koff (Human CD3 epsilon-delta [14]): 0.00524 s⁻¹
kon (Human CD3 epsilon-delta [14]): 1.1e+06 M⁻¹ s⁻¹
T84 tumor cell EC50 (T cell cytotoxicity, E:T 10:1) [15]: 0.41 nM
Kd [16]: 19.3 nM
koff [16]: 0.0442 s⁻¹
kon [16]: 2.28e+06 M⁻¹ s⁻¹
Kd [17]: 7.19 nM
koff [17]: 0.00104 s⁻¹
kon [17]: 145000 M⁻¹ s⁻¹
Kd [18]: 3.56 nM
koff [18]: 0.00101 s⁻¹
kon [18]: 284000 M⁻¹ s⁻¹
Kd [19]: 103 nM
koff [19]: 0.0201 s⁻¹
kon [19]: 196000 M⁻¹ s⁻¹
Kd [20]: 2.8 nM
koff [20]: 0.000577 s⁻¹
kon [20]: 206000 M⁻¹ s⁻¹
